Results: publication doi:10.1101/2025.05.22.655130v1

Substrate: O=[N+]([O-])c1ccc(O[C@@H]2O[C@H](CO)[C@@H](O)[C@H](O)[C@H]2O)cc1
Assay: purified protein
Format: biochemical, Paenibacillus polymyxa
Conditions: 0.11-100 mM substrate, readings every minute for 15 min; triplicate

Protein	Km	kcat
β-glucosidase B (BglB) (Paenibacillus polymyxa; L339M) (protein) MSENTFIFPATFMWGTSTSSYQIEGGTDEGGRTPSIWDTFCQIPGKVIGGDCGDVACDHFHHFKEDVQLMKQLGFLHYRFSVAWPRIMPAAGIINEEGLLFYEHLLDEIELAGLIPMLTLYHWDLPQWIEDEGGWTQRETIQHFKTYASVIMDRFGERINWWNTINEPYCASILGYGTGEHAPGHENWREAFTAAHHILMCHGIASNLHKEKGLTGKIGITLNMEHVDAASERPEDVAAAIRRDGFINRWFAEPLFNGKYPEDMVEWYGTYLNGLDFVQPGDMELIQQPGDFLGINYYTRSIIRSTNDASLLQVEQVHMEEPVTDMGWEIHPESFYKLMTRIEKDFSKGLPILITENGAAMRDELVNGQIEDTGRHGYIEEHLKACHRFIEEGGQLKGYFVWSFLDNFEWAWGYSKRFGIVHINYETQERTPKQSALWFKQMMAKNGF	4.72 ± 0.82 mM	6.58 ± 0.302 s⁻¹
β-glucosidase B (BglB) (Paenibacillus polymyxa; L339S) (protein) MSENTFIFPATFMWGTSTSSYQIEGGTDEGGRTPSIWDTFCQIPGKVIGGDCGDVACDHFHHFKEDVQLMKQLGFLHYRFSVAWPRIMPAAGIINEEGLLFYEHLLDEIELAGLIPMLTLYHWDLPQWIEDEGGWTQRETIQHFKTYASVIMDRFGERINWWNTINEPYCASILGYGTGEHAPGHENWREAFTAAHHILMCHGIASNLHKEKGLTGKIGITLNMEHVDAASERPEDVAAAIRRDGFINRWFAEPLFNGKYPEDMVEWYGTYLNGLDFVQPGDMELIQQPGDFLGINYYTRSIIRSTNDASLLQVEQVHMEEPVTDMGWEIHPESFYKLSTRIEKDFSKGLPILITENGAAMRDELVNGQIEDTGRHGYIEEHLKACHRFIEEGGQLKGYFVWSFLDNFEWAWGYSKRFGIVHINYETQERTPKQSALWFKQMMAKNGF	4.44 ± 0.62 mM	9.53 ± 0.348 s⁻¹
β-glucosidase B (BglB) (Paenibacillus polymyxa; L339H) (protein) MSENTFIFPATFMWGTSTSSYQIEGGTDEGGRTPSIWDTFCQIPGKVIGGDCGDVACDHFHHFKEDVQLMKQLGFLHYRFSVAWPRIMPAAGIINEEGLLFYEHLLDEIELAGLIPMLTLYHWDLPQWIEDEGGWTQRETIQHFKTYASVIMDRFGERINWWNTINEPYCASILGYGTGEHAPGHENWREAFTAAHHILMCHGIASNLHKEKGLTGKIGITLNMEHVDAASERPEDVAAAIRRDGFINRWFAEPLFNGKYPEDMVEWYGTYLNGLDFVQPGDMELIQQPGDFLGINYYTRSIIRSTNDASLLQVEQVHMEEPVTDMGWEIHPESFYKLHTRIEKDFSKGLPILITENGAAMRDELVNGQIEDTGRHGYIEEHLKACHRFIEEGGQLKGYFVWSFLDNFEWAWGYSKRFGIVHINYETQERTPKQSALWFKQMMAKNGF	3.55 ± 0.26 mM	11.2 ± 0.222 s⁻¹
β-glucosidase B (BglB) (Paenibacillus polymyxa; L339A) (protein) MSENTFIFPATFMWGTSTSSYQIEGGTDEGGRTPSIWDTFCQIPGKVIGGDCGDVACDHFHHFKEDVQLMKQLGFLHYRFSVAWPRIMPAAGIINEEGLLFYEHLLDEIELAGLIPMLTLYHWDLPQWIEDEGGWTQRETIQHFKTYASVIMDRFGERINWWNTINEPYCASILGYGTGEHAPGHENWREAFTAAHHILMCHGIASNLHKEKGLTGKIGITLNMEHVDAASERPEDVAAAIRRDGFINRWFAEPLFNGKYPEDMVEWYGTYLNGLDFVQPGDMELIQQPGDFLGINYYTRSIIRSTNDASLLQVEQVHMEEPVTDMGWEIHPESFYKLATRIEKDFSKGLPILITENGAAMRDELVNGQIEDTGRHGYIEEHLKACHRFIEEGGQLKGYFVWSFLDNFEWAWGYSKRFGIVHINYETQERTPKQSALWFKQMMAKNGF	24.3 ± 1.65 mM	9.47 ± 0.248 s⁻¹
β-glucosidase B (BglB) (Paenibacillus polymyxa; D38E) (protein) MSENTFIFPATFMWGTSTSSYQIEGGTDEGGRTPSIWETFCQIPGKVIGGDCGDVACDHFHHFKEDVQLMKQLGFLHYRFSVAWPRIMPAAGIINEEGLLFYEHLLDEIELAGLIPMLTLYHWDLPQWIEDEGGWTQRETIQHFKTYASVIMDRFGERINWWNTINEPYCASILGYGTGEHAPGHENWREAFTAAHHILMCHGIASNLHKEKGLTGKIGITLNMEHVDAASERPEDVAAAIRRDGFINRWFAEPLFNGKYPEDMVEWYGTYLNGLDFVQPGDMELIQQPGDFLGINYYTRSIIRSTNDASLLQVEQVHMEEPVTDMGWEIHPESFYKLLTRIEKDFSKGLPILITENGAAMRDELVNGQIEDTGRHGYIEEHLKACHRFIEEGGQLKGYFVWSFLDNFEWAWGYSKRFGIVHINYETQERTPKQSALWFKQMMAKNGF	2.72 ± 0.31 mM	0.272 ± 0.00667 s⁻¹
β-glucosidase B (BglB) (Paenibacillus polymyxa; D38W) (protein) MSENTFIFPATFMWGTSTSSYQIEGGTDEGGRTPSIWWTFCQIPGKVIGGDCGDVACDHFHHFKEDVQLMKQLGFLHYRFSVAWPRIMPAAGIINEEGLLFYEHLLDEIELAGLIPMLTLYHWDLPQWIEDEGGWTQRETIQHFKTYASVIMDRFGERINWWNTINEPYCASILGYGTGEHAPGHENWREAFTAAHHILMCHGIASNLHKEKGLTGKIGITLNMEHVDAASERPEDVAAAIRRDGFINRWFAEPLFNGKYPEDMVEWYGTYLNGLDFVQPGDMELIQQPGDFLGINYYTRSIIRSTNDASLLQVEQVHMEEPVTDMGWEIHPESFYKLLTRIEKDFSKGLPILITENGAAMRDELVNGQIEDTGRHGYIEEHLKACHRFIEEGGQLKGYFVWSFLDNFEWAWGYSKRFGIVHINYETQERTPKQSALWFKQMMAKNGF	2.80 ± 0.55 mM	0.217 ± 0.01 s⁻¹
